Test results as given in the supplement of paper PMC9876800.

System: peptide library, one residue held at a place counted from the S/T acceptor
Assay: relative phosphorylation of the sub-library (ratio to the mean residue at this position); higher = residue favoured
Settings: human
Method in brief: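 Human or orthologue kinase constructs, purified and recombinant, were incubated under kinase-specific conditions in 384-well plates with biotinylated degenerate peptide sub-libraries. Each sub-library fixed one residue at one position around a central Ser/Thr. Incubations lasted 90 min with peptides at 50 μM and 50 μM ATP spiked with γ-32P-ATP, after which spots on streptavidin membranes were phosphorimaged and quantified by densitometry. Relative sub-library phosphorylation is a ratio to the mean residue at that position.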

Chain of PLK1, construct: Full length (P53350 whole entry, looked up): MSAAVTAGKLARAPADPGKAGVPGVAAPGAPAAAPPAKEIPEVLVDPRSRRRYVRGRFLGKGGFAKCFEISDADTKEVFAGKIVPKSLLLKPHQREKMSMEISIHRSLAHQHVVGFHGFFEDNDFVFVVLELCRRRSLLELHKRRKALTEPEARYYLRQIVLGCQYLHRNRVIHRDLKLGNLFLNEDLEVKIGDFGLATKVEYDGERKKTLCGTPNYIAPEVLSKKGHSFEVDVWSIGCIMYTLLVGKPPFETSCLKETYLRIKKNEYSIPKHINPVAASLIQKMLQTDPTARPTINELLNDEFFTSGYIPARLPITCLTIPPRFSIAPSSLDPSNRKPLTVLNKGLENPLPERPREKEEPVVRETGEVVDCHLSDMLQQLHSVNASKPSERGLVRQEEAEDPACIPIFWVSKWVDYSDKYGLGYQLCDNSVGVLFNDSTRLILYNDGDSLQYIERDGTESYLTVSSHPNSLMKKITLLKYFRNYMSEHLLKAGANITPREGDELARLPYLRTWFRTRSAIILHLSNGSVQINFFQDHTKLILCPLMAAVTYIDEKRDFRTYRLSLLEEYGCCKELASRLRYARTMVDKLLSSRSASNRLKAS
Chain of SMG1, construct: Full length (Q96Q15 whole entry, looked up): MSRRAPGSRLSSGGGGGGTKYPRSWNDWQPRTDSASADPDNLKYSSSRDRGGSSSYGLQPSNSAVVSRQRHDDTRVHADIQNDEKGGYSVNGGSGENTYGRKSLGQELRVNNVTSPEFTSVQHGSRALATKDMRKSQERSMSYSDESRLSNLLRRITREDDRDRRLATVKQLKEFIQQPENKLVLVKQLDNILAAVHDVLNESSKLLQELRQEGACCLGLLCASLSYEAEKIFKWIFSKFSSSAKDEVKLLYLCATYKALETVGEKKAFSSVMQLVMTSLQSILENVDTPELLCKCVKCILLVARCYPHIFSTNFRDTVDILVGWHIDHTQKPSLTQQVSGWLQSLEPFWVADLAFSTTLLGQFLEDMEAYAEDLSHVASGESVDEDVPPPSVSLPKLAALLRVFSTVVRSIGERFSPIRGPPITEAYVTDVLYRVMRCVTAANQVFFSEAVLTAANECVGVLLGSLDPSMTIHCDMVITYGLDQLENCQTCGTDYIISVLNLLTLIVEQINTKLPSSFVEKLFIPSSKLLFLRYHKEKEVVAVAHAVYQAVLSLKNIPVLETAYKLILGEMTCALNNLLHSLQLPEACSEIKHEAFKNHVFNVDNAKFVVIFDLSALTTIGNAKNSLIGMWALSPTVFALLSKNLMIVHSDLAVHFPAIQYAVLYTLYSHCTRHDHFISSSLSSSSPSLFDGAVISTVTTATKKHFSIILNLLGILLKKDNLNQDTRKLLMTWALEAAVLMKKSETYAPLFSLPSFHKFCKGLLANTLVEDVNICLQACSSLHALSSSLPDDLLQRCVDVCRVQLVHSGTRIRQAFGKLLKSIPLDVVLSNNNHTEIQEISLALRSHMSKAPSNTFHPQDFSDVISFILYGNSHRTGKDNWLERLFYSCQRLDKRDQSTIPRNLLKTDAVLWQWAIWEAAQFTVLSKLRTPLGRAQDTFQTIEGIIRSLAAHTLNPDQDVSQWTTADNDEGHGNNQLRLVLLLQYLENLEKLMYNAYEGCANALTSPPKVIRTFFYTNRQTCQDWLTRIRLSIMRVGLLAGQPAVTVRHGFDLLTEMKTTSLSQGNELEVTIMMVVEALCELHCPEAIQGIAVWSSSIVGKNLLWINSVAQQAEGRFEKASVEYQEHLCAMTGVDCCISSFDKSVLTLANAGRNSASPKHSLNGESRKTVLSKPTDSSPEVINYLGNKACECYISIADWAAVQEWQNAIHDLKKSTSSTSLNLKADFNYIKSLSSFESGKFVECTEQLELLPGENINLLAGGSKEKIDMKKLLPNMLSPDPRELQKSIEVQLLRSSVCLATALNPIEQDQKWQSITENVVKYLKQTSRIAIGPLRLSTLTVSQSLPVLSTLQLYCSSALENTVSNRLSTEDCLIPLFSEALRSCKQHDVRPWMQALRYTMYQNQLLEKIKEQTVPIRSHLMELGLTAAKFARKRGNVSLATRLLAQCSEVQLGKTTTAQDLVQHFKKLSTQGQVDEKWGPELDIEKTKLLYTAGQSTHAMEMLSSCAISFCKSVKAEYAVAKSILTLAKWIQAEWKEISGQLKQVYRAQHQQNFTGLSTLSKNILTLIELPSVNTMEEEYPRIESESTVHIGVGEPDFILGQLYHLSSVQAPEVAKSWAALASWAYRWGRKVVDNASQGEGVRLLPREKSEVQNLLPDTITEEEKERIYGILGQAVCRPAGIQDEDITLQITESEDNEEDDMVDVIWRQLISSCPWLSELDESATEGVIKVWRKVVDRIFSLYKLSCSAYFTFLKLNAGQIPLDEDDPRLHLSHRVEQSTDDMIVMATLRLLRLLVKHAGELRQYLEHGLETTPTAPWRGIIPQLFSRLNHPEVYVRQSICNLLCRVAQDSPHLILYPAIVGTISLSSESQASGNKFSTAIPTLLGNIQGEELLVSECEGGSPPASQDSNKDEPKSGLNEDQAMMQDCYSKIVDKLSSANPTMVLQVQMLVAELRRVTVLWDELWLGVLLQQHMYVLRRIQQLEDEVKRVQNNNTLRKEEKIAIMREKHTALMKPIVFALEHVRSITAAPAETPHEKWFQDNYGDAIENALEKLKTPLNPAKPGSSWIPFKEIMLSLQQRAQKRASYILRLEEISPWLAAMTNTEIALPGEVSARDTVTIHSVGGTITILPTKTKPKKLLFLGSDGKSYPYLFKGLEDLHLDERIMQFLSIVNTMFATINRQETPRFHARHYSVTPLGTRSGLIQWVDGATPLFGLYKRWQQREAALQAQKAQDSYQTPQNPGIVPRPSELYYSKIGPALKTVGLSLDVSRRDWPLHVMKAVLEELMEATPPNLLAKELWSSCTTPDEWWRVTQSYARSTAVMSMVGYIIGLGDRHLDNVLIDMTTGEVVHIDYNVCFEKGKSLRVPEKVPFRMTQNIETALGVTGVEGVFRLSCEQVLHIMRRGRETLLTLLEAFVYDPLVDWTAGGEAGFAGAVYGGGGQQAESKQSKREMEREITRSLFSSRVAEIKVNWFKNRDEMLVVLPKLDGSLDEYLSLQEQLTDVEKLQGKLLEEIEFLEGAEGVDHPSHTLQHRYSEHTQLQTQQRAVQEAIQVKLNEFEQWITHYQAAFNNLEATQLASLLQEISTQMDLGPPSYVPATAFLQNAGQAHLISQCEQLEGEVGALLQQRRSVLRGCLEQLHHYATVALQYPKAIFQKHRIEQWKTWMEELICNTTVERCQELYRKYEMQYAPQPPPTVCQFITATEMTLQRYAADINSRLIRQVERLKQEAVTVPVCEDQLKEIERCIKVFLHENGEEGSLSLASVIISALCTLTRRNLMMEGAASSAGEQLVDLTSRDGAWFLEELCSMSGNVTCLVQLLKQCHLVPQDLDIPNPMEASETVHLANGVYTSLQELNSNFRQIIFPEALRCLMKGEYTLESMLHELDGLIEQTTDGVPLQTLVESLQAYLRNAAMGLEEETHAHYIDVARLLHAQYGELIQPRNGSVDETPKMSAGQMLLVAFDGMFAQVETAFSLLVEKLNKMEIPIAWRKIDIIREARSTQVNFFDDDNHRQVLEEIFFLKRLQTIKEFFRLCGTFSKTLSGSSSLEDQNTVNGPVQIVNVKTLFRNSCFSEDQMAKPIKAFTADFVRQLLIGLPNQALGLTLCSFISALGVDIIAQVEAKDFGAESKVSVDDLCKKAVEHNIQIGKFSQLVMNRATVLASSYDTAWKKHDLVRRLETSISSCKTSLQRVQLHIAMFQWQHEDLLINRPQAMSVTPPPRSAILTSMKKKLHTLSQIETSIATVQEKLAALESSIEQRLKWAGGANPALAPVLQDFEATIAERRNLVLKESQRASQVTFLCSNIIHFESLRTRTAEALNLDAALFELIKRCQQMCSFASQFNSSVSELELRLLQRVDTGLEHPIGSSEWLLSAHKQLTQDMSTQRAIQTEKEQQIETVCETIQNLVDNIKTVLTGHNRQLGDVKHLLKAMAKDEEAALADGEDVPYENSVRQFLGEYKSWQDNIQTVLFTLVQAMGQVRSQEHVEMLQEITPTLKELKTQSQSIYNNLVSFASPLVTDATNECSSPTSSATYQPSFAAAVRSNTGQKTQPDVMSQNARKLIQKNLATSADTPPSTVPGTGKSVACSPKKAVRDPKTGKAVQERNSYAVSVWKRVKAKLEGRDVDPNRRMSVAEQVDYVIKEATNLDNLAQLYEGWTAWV
Chain of STK4, construct: Full length (Q13043 whole entry, looked up): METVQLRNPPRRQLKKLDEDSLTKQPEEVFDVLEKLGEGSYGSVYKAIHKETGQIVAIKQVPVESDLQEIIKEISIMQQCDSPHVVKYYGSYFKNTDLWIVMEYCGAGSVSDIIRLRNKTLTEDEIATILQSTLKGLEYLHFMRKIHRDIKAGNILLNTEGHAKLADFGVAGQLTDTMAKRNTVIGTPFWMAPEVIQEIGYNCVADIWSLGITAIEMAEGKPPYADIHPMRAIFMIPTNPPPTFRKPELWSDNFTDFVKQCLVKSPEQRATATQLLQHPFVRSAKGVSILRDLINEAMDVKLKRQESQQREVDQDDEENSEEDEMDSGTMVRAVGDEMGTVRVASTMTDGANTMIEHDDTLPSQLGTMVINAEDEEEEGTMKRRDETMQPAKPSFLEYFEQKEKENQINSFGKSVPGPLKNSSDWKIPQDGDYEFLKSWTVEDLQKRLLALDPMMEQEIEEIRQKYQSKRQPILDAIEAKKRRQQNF

PLK1, construct: Full length (from UniProt P53350)
relative phosphorylation
Settings | at +1 | at +2 | at +3 | at +4 | at -1 | at -2 | at -3 | at -4 | at -5
A fixed | 0.622 | 0.73 | 0.85 | 0.951 | 0.748 | 0.452 | 0.934 | 1.12 | 1.16
D fixed | 0.419 | 0.677 | 1.4 | 1.35 | 1.62 | 3.98 | 1.1 | 1.47 | 1.34
E fixed | 0.461 | 0.705 | 1.87 | 1.48 | 1.46 | 2.28 | 1.23 | 1.31 | 1.1
F fixed | 3.16 | 1.2 | 0.935 | 0.898 | 0.734 | 0.523 | 1.09 | 0.918 | 0.876
G fixed | 0.524 | 0.439 | 0.881 | 1.01 | 0.451 | 0.679 | 1.23 | 1.09 | 1.21
H fixed | 0.809 | 1.28 | 1.13 | 1.01 | 1.03 | 0.861 | 1.47 | 0.981 | 1.1
I fixed | 1.28 | 1.37 | 1.05 | 0.769 | 0.976 | 0.402 | 0.66 | 0.816 | 0.757
K fixed | 0.593 | 0.567 | 0.679 | 0.782 | 1.04 | 0.495 | 0.689 | 0.942 | 1.02
L fixed | 1.36 | 1.7 | 1.02 | 0.795 | 0.964 | 0.53 | 1.33 | 0.979 | 0.807
M fixed | 1.72 | 1.4 | 0.972 | 0.932 | 1.2 | 0.505 | 1.38 | 0.95 | 0.802
N fixed | 0.606 | 1.14 | 0.82 | 1.1 | 1.24 | 2.86 | 1.08 | 1 | 1.22
P fixed | 0.246 | 0.421 | 0.579 | 1.41 | 0.42 | 0.33 | 0.785 | 0.836 | 0.936
Q fixed | 0.856 | 0.847 | 0.982 | 0.945 | 1.17 | 0.747 | 0.857 | 0.849 | 0.842
R fixed | 0.908 | 0.959 | 0.76 | 0.813 | 1.4 | 0.641 | 0.998 | 0.961 | 1.02
V fixed | 1.06 | 1.14 | 1.02 | 0.701 | 1.03 | 0.373 | 0.552 | 0.791 | 0.813
W fixed | 0.971 | 1.05 | 1.05 | 1.09 | 0.563 | 0.636 | 0.898 | 1.16 | 1.06
Y fixed | 1.4 | 1.38 | 1 | 0.958 | 0.952 | 0.709 | 0.718 | 0.832 | 0.927
pThr fixed | 2.54 | 0.971 | 0.987 | 2.29 | 1.02 | 0.627 | 0.945 | 1.03 | 1.3
pTyr fixed | 1.02 | 1.47 | 1.67 | 1.8 | 1.98 | 0.802 | 1.01 | 0.88 | 1.33

STK4, construct: Full length (from UniProt Q13043)
relative phosphorylation
Settings | at +1 | at +2 | at +3 | at +4 | at -1 | at -2 | at -3 | at -4 | at -5
A fixed | 0.647 | 0.612 | 0.745 | 0.743 | 0.705 | 0.763 | 0.756 | 0.771 | 0.964
D fixed | 0.276 | 0.533 | 0.669 | 0.779 | 1.43 | 1.46 | 1.24 | 1.07 | 1.35
E fixed | 0.245 | 0.413 | 0.627 | 0.668 | 0.881 | 1.09 | 0.916 | 1.12 | 0.833
F fixed | 0.995 | 0.677 | 0.965 | 0.892 | 0.877 | 1.66 | 1.05 | 1.02 | 0.98
G fixed | 0.641 | 0.75 | 0.917 | 0.987 | 1.1 | 0.747 | 1.07 | 0.983 | 0.91
H fixed | 0.703 | 1.33 | 1.12 | 1.05 | 1.26 | 1.15 | 1.06 | 1.27 | 1.04
I fixed | 1.91 | 0.449 | 0.682 | 0.738 | 0.329 | 0.507 | 0.622 | 0.766 | 0.581
K fixed | 0.639 | 3.53 | 1.85 | 1.5 | 1.93 | 0.591 | 0.963 | 1.08 | 1.15
L fixed | 2.6 | 0.759 | 0.779 | 1.01 | 0.822 | 0.596 | 0.577 | 0.749 | 0.773
M fixed | 2.59 | 0.588 | 0.673 | 0.918 | 0.735 | 1 | 0.658 | 0.742 | 0.757
N fixed | 0.558 | 1.13 | 1.21 | 1.24 | 1.45 | 1.28 | 1.25 | 1.06 | 1.02
P fixed | 0.196 | 0.926 | 1.19 | 1.13 | 0.897 | 0.681 | 0.992 | 0.674 | 1.33
Q fixed | 0.685 | 1.23 | 1.07 | 1.3 | 1.17 | 1.03 | 1.35 | 1.34 | 1.24
R fixed | 0.615 | 2.29 | 2.01 | 1.19 | 1.33 | 0.582 | 0.78 | 1.01 | 1.08
V fixed | 1.08 | 0.779 | 0.702 | 0.789 | 0.397 | 0.561 | 0.646 | 0.954 | 0.861
W fixed | 1.79 | 0.495 | 0.884 | 1.27 | 0.776 | 1.59 | 1.63 | 1.17 | 1.09
Y fixed | 0.816 | 0.524 | 0.898 | 0.793 | 0.926 | 1.72 | 1.45 | 1.24 | 1.05
pThr fixed | 0.822 | 1.04 | 0.958 | 0.825 | 0.594 | 1.02 | 0.978 | 0.889 | 0.769
pTyr fixed | 0.627 | 0.715 | 0.937 | 0.899 | 0.908 | 2.04 | 1.39 | 0.975 | 1.09

SMG1, construct: Full length (from UniProt Q96Q15)
relative phosphorylation
Settings | at +1 | at +2 | at +3 | at +4 | at -1 | at -2 | at -3 | at -4 | at -5
A fixed | 0.603 | 0.979 | 1.02 | 0.957 | 0.855 | 1.26 | 1.21 | 1.23 | 1.18
D fixed | 0.453 | 1.12 | 1.33 | 0.91 | 0.348 | 0.521 | 0.669 | 0.674 | 0.649
E fixed | 0.336 | 0.964 | 1.15 | 0.799 | 0.298 | 0.645 | 0.836 | 0.829 | 0.693
F fixed | 0.533 | 0.966 | 1.12 | 1.28 | 1.35 | 1.25 | 1.44 | 1.3 | 1.39
G fixed | 0.603 | 0.924 | 0.974 | 0.933 | 0.646 | 1.29 | 1.03 | 1.26 | 1.28
H fixed | 0.522 | 0.991 | 0.858 | 1.06 | 0.939 | 1.04 | 0.972 | 1.02 | 1.07
I fixed | 0.539 | 0.841 | 0.899 | 0.883 | 0.662 | 1.08 | 0.874 | 0.926 | 0.924
K fixed | 0.581 | 0.711 | 0.62 | 0.779 | 0.725 | 0.698 | 0.604 | 0.614 | 0.67
L fixed | 0.739 | 0.889 | 0.853 | 0.943 | 4.37 | 1.2 | 0.965 | 1.01 | 0.958
M fixed | 0.55 | 1.03 | 1.07 | 1 | 2.27 | 1.26 | 1.33 | 1.08 | 1.03
N fixed | 0.841 | 0.832 | 0.854 | 0.806 | 0.722 | 0.82 | 0.766 | 0.73 | 0.701
P fixed | 0.567 | 1.39 | 0.996 | 1.12 | 0.558 | 0.807 | 0.817 | 0.855 | 1
Q fixed | 7.53 | 1.13 | 0.832 | 0.867 | 0.822 | 0.877 | 0.83 | 0.766 | 0.729
R fixed | 0.875 | 0.818 | 0.931 | 0.85 | 0.615 | 0.751 | 0.687 | 0.677 | 0.781
V fixed | 0.567 | 0.946 | 0.913 | 0.881 | 0.474 | 0.996 | 0.912 | 0.93 | 0.964
W fixed | 0.545 | 1.26 | 1.31 | 1.53 | 0.53 | 1.08 | 1.36 | 1.55 | 1.6
Y fixed | 0.613 | 1.2 | 1.28 | 1.39 | 0.823 | 1.42 | 1.7 | 1.55 | 1.38
pThr fixed | 0.386 | 1.04 | 1.82 | 1.03 | 0.365 | 0.661 | 0.999 | 1.11 | 1.1
pTyr fixed | 0.416 | 0.704 | 1.06 | 1.41 | 0.539 | 1.27 | 1.71 | 1.65 | 1.47
